Measurements reported in patent US20180022797A1 (published 2018).
Ends that are not written are not given here.

Molecular target: T1, peptide 13 (TSESGELHGLTTE) (human, also: biotinylated, site not given here)
T1 construct: on the D-strand
T1 peptide: TSESGELHGLTTE
Assay: ELISA: antibody titrated on NeutrAvidin-captured biotinylated peptide, non-linear regression
Procedure: ELISA assay was then utilized to identify the corresponding epitope(s) for each antibody. 5 μg/mL of NeutrAvidin (Pierce, USA) in 50 mM pH 9.6 sodium carbonate/bicarbonate buffer was used to coat 96-well Corning high-binding EIA/RIA plates. The plates were washed three times with TBST buffer and blocked with Superblock (Pierce, USA). Fifty to one hundred microliters of the biotinylated peptides were diluted with PBS to […] and added to each well and incubated at room temperature for one hour. […] After one hour room temperature incubation and washing steps, HRP-conjugated secondary antibody was applied. Goat-anti-mouse IgG or Fc HRP conjugates were used in the case of mouse monoclonal antibodies while goat-anti-rabbit IgG HRP conjugate antibody was used for rabbit polyclonal detection. TMB was used as the HRP substrate for the detections.

Kd: 0.25 nM
B1: MFD108 (antibody, V domains shown)
VH: EVQLVESGGDLVKPGGSLKLSCAASGFTFSNYGMSWVRQTPDKRLEWVATITSGGSYTYYPDSVKGRFTISRDNAKNTLYLQMSSLKSEDTAMYYCARDGTAWFAYWGQGTLVTVSA
VL: DIQMTQTTSSLSASLGDRVTISCRASQDISNYLNWYQQKPDGTVKLLIYYTSRLHSGVPSRFSGSGSGTDYSLTISNLEEEDIATYFCQQGNTLRTFGGGTKLEIK
notes: Mouse monoclonal IgG1, kappa light chain; also called mouse monoclonal antibody MFD108; hybridoma ATCC PTA-120816
